Results: the RNAGym collection of RNA variant scans (doi:10.1073/pnas.2313332121)
This sample holds only a part of the variants without activity.

B1: TPR 5TU (parent)
chain: GGAUCUUCUCGAUCUAACAAAAAAGACAAAUCUGCCACAAAGCUUGAGAGCAUCUUCGGAUGCAGAGGCGGCAGCCUUCGGUGGCGCGAUAGCGCCAACGUUCUCAACUAUGACACGCAAAACGCGUGCUCCGUUGAAUGGAGUUUAUCAUG

Variants of: B1
Assay: polymerase ribozyme fitness, log enrichment relative to wild type (log ratio); higher = more active; in vitro selection for triplet polymerase activity
Summary of the method: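 In triplicate, a single round of in vitro selection was run on each mutant library, PCR-built and transcribed, covering one subunit of a heterodimeric triplet polymerase ribozyme. Frozen incubation at −7 °C followed annealing with a biotinylated primer, partner subunit and triplets, and extended constructs were then gel-excised, streptavidin-captured and taken through RT-PCR. Fitness is the logarithm of genotype enrichment over wild-type enrichment, from inverse-variance-weighted replicate averages of Illumina-sequenced inputs and outputs. […] only genotypes with ≥10 input reads and ≥1 read per output were kept.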

| Variant | polymerase ribozyme fitness (log ratio) |
| --- | --- |
| C93G A97U U145G | ≤ -4.2 |
| C85U U146G | -0.713 |
| A60G C95U C96A | -1.03 |
| U4A U53A U82A A91U A115G U148G | ≤ -4.2 |
| U7A A26C U31A G34C G70U U78G G117A C118U A119C | ≤ -4.2 |
| A20C C54U C95U G140U | -3.23 |
| U45A C51U C54U G92U | -3.95 |
| A49C G94C U104G | ≤ -4.2 |
| U55A C69A A97U U102C C149A | ≤ -4.2 |
| G59C C95U A110G C116A | -3.2 |
| C10G G25U U55A G88A A106G U130A A150G | ≤ -4.2 |
| C75U G83U C129G U144G | ≤ -4.2 |
| C18A A19C G50U C75U A110U | ≤ -4.2 |
| A16U A22C C27A C125A A150G | ≤ -4.2 |
| A17U C87A A98G C132U G136A | ≤ -4.2 |
| A17G C85U A115U C125A U144G A150C | ≤ -4.2 |
| U78G A91C C131G | ≤ -4.2 |
| G59A A110U | -3.64 |
| A20C C27U G81A G86A C99G | -2.96 |
| G80A U146G U148C | -3.91 |
| G84C C123G U146G | -2.7 |

| Variant | polymerase ribozyme fitness (log ratio) |
| --- | --- |
| G58U C132G | -2.82 |
| C43U C75A C79U G86U C87U G117U A150C | ≤ -4.2 |
| C27U G50C G141A | -4.12 |
| A22C C69U C93A U144A | -3.99 |
| C118U A142C | -0.682 |
| G58U C123U | 0.837 |
| C38U U55G G84C A98U | -1 |
| A28U A30C C79A | ≤ -4.2 |
| C96G C105G G143A | -3.02 |
| U44G G58U A98G U144A | ≤ -4.2 |
| C51A C85U A89G U146A | -3.11 |
| A24C C85A G143C U146A | ≤ -4.2 |
| U61A C129U | -3.55 |
| A16U U56A C96A | -3.23 |
| A106G A110U | -3.42 |
| C72A U148A | ≤ -4.2 |
| U7C A23U C87A A89G C116U C125U | ≤ -4.2 |
| A20G A73G C85A | -2.05 |
| C14U C27G G94C G133U A150G | ≤ -4.2 |
| C5U A19C A39G G80C C87U C105G U135A | ≤ -4.2 |
| A40C C85U | -0.549 |

| Variant | polymerase ribozyme fitness (log ratio) |
| --- | --- |
| A39U G58C G88A | ≤ -4.2 |
| A49U A97U A106G C116U | -2.93 |
| A41C A89U C95U G124A C125G | -1.75 |
| A47C G58C A64U U104C A107G | ≤ -4.2 |
| U53G C93A C103G | ≤ -4.2 |
| A21U U44A C51U C57U G65A | ≤ -4.2 |
| C87U G117A | -0.356 |
| A17C U33C G42C C51A U53A U139G A142G | ≤ -4.2 |
| G83C U145G | -0.686 |
| A20G G50C C54G C76A C87G U90G C95U | ≤ -4.2 |
| A12U A97U | -0.954 |
| C116U A121U G124U | -2.02 |
| C76U C85U C99G | -1.05 |
| C57A A64C C85A C95U U130A A147U | ≤ -4.2 |
| U6G A12U A28C G65U U127G | ≤ -4.2 |
| U4C U53A U55A G81C A150U | -1.4 |
| C57U G83A G88A A89G U134G | ≤ -4.2 |
| A21C A73U A107C A121U C149U | ≤ -4.2 |
| C54A C87A C114A C116G | ≤ -4.2 |
| C38U A52C A60G A119G | 0.129 |
| A16G A39C | -2.62 |

| Variant | polymerase ribozyme fitness (log ratio) |
| --- | --- |
| U9A C36A C72G G92A C129A A137U | ≤ -4.2 |
| A40U A52G C132G | -3.47 |
| C75U A122G G124A C149U | -1.15 |
| G92A U127A | -3.83 |
| A29U G48U U61G G83C | ≤ -4.2 |
| A24G A26C A29C C79A C93U A115G G117A U144C A150C | ≤ -4.2 |
| C8G G143C | -4.08 |
| C14G A73G G88C A98U C99G | ≤ -4.2 |
| G48C U82G G128C U135A | -3.96 |
| U13G A41C C96U A107U C131A G133A U146C | ≤ -4.2 |
| U55A C85A A119U U134A A142C | ≤ -4.2 |
| A60U U78C A91U C116A G117U | ≤ -4.2 |
| A21U G42C U44A U53A U55A C87U | ≤ -4.2 |
| A37C C96G A106G | -0.258 |
| U31G C87U U127A | -3.89 |
| U15G C132A | -2.26 |
| U33C A97G | -2.92 |
| U13A G34U A49C G140A A142U | ≤ -4.2 |
| A60G A89G | -0.778 |
| G83A G141U G143A | ≤ -4.2 |
